In US20120053225A1 (H LEE MOFFITT CANCER CENTER AND RESEARCH INSTITUTE, published 2012):

B1: endogenous Akt1 of mouse embryo fibroblasts (enzyme, UniProt P31750 1-480, looked up)
chain: MNDVAIVKEGWLHKRGEYIKTWRPRYFLLKNDGTFIGYKERPQDVDQRESPLNNFSVAQCQLMKTERPRPNTFIIRCLQWTTVIERTFHVETPEEREEWATAIQTVADGLKRQEEETMDFRSGSPSDNSGAEEMEVSLAKPKHRVTMNEFEYLKLLGKGTFGKVILVKEKATGRYYAMKILKKEVIVAKDEVAHTLTENRVLQNSRHPFLTALKYSFQTHDRLCFVMEYANGGELFFHLSRERVFSEDRARFYGAEIVSALDYLHSEKNVVYRDLKLENLMLDKDGHIKITDFGLCKEGIKDGATMKTFCGTPEYLAPEVLEDNDYGRAVDWWGLGVVMYEMMCGRLPFYNQDHEKLFELILMEEIRFPRTLGPEAKSLLSGLLKKDPTQRLGGGSEDAKEIMQHRFFANIVWQDVYEKKLSPPFKPQVTSETDTRYFDEEFTAQMITITPPDQDDSMECVDSERRPHFPQFSYSASGTA
notes: Endogenous protein in MEF lysates
B2: GST-Ack1 (kinase, SH3 and CRIB domain), expressed in E. coli (enzyme, UniProt Q07912 110-476, looked up)
chain: GEGPLQSLTCLIGEKDLRLLEKLGDGSFGVVRRGEWDAPSGKTVSVAVKCLKPDVLSQPEAMDDFIREVNAMHSLDHRNLIRLYGVVLTPPMKMVTELAPLGSLLDRLRKHQGHFLLGTLSRYAVQVAEGMGYLESKRFIHRDLAARNLLLATRDLVKIGDFGLMRALPQNDDHYVMQEHRKVPFAWCAPESLKTRTFSHASDTWMFGVTLWEMFTYGQEPWIGLNGSQILHKIDKEGERLPRPEDCPQDIYNVMVQCWAHKPEDRPTFVALRDFLLEAQPTDMRALQDFEEPDKLHIQMNDVITVIEGRAENYWWRGQNTRTLCVGPFPRNVVTSVAGLSAQDISQPLQNSFIHTGHGDSDPRHCW
notes: domain: kinase, SH3 and CRIB domain; also called GST-tagged Ack1; not shown: GST tag

Tests used:
[1] = target: T1, endogenous Ack1 of mouse embryo fibroblasts (mouse, UniProt O54967 1-1055, limits assumed); assay: co-IP with Ack1 antibodies from EGF-treated MEF lysates, immunoblot with pan-AKT antibodies
T1 construct: Endogenous protein immunoprecipitated from MEF lysates with anti-Ack1 antibodies; also called TNK2
T1 sequence (O54967 whole entry): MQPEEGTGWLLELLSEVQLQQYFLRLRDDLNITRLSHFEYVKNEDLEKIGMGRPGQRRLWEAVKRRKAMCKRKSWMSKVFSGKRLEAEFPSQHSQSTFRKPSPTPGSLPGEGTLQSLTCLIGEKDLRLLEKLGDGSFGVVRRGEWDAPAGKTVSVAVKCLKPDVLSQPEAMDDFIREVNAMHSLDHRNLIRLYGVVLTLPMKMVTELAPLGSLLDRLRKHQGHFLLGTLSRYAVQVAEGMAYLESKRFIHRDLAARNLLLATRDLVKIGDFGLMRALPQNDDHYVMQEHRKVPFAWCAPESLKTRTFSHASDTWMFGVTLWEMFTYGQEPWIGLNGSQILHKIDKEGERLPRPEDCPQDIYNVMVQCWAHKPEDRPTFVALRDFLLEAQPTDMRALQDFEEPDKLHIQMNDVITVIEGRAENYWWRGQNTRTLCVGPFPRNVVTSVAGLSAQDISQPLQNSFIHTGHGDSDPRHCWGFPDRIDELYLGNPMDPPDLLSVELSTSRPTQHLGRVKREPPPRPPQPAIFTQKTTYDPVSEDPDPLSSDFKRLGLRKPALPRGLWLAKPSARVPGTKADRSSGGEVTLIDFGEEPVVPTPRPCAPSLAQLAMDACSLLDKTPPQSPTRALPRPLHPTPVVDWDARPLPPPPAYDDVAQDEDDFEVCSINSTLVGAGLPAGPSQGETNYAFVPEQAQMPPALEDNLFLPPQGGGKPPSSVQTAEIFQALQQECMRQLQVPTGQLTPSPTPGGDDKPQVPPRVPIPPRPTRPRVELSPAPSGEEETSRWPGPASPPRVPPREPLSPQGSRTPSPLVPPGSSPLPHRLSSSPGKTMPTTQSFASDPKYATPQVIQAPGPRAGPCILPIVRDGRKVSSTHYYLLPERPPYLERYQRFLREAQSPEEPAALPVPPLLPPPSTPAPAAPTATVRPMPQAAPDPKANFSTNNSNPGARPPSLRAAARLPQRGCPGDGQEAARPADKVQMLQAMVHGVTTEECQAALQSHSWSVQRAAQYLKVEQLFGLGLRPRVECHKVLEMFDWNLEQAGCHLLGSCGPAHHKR
Method: Membrane and cytosolic fractionation was performed using membrane fractionation kit (BioVision, Inc, CA). The nuclear/cytoplasmic fractionation was performed using protocol from Abcam (Abcam, Inc., Cambridge, Mass.). For immunoprecipitations, cells were lysed in receptor lysis buffer (RLB) containing 25 mmol/L Tris (pH 7.5), 500 mmol/L NaCl, 1% Triton X-100, 10% glycerol, phosphatase inhibitors (10 mmol/L NaF, 1 mmol/L Na₂VO₄), and protease inhibitor mix (Hoffmann-La Roche Inc., Switzerland). […] The kinase assay was performed using kit from Calbiochem.

[2] = target: T2, HA-tagged AKT Y176F mutant (UniProt P31749 1-480); assay: pull-down of purified proteins on GST-Ack1 glutathione beads, immunoblot
T2 construct: also called Y176F mutant of AKT; HA-Y176F; not shown: HA tag

Binder | binding result [1] | binding result [2]
B1 | binds | –
B2 | – | no binding
